Literature values, collected in article PMC4526808.
Like-named read-outs stand apart in the source and are kept apart here.

Experiments:
[1] = target: PKA RIIα D/D domain (UniProt P13861)
[2] = target: PKA RIα D/D domain (UniProt P10644)
[3] = target: PKA RIIα D/D domain (UniProt P13861); remark: listed apart in the source
[4] = target: PKA RIα D/D domain (UniProt P10644); remark: listed apart in the source
[5] = target: PKA RIIα D/D domain (UniProt P13861); remark: listed apart in the source

Sequence of UniProt P13861 (P13861 2-45): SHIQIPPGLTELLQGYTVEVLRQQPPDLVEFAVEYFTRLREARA
Sequence of UniProt P10644 (P10644 1-61): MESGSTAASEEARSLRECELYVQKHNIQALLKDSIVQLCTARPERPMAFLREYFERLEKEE

Substance: AKAP-is
- Kd [1]: 0.4 nM

Substance: Ht31
- Kd [2]: 1300 nM
- Kd [3]: 2.2 nM

Substance: RIAD
- Kd [4]: 1 nM
- Kd [5]: 1800 nM
